The results in this text go back to patent CN106928350A (TIANJIN INST IND BIOTECHNOLOGY CAS; SUZHOU GENEWIZ …, dated 2017).

The target of assay [1] is T1, HA of A/PuertoRico/8/1934 H1N1 (Influenza A virus A/PuertoRico/8/1934 …, UniProt P03452 18-565).
T1 construct: whole, on cells; also called PR8
Nature of the assay: immunofluorescence on virus-infected MDCK cells.

Assay [2] deals with T2, HA of H4 (A/duck/Czech/1956)/PR8 H4N1 (PR8-RS) (Influenza A virus A/duck/Czech/1956 (H4), UniProt P19696 17-564).
T2 construct: whole, on cells
Nature of the assay: immunofluorescence on virus-infected MDCK cells, antibody 40μg/mL.

B1: AF4H1K1 (antibody, V domains shown)
VH: QVQLVESGGGVVQPGTSLRLSCEASGFTSSAYAMHWVRQAPGKGLEWVAVITFDGGYQYYADSVKGRFTISRDISRNTLHLHMNSLRAEDTAVYYCARDPLTKLLPFDWVSGGYFDYWGQGTLVTVSS
VL: not shown
notes: also called AF4H1K1 IgG; AF4H1K1IgG
With B1, the binding result in assay [1] is given as “no binding (tested: 40μg/mL)”; in assay [2], “binds”.
